Starred links: 1 amine or outer side, 2 acyl side, 3 side chain; linkers in the order of their positions; H or OH if unused. Positions of bridges follow the written chain, without caps; N, C: chain ends. Non-standard residues stand in square brackets, D forms with d. No end group written: not given here. 1Nal = N[C@@H](Cc1cccc2ccccc12)C(=O)O; TBMB = c1c(C[*:1])cc(C[*:3])cc1C[*:2]; Gly(cPent) = N[C@H](C(=O)O)C1CCCC1; hArg = N=C(N)NCCCC[C@H](N)C(=O)O; Tle = CC(C)(C)[C@H](N)C(=O)O; Aib = CC(C)(N)C(=O)O; βAla = NCCC(=O)O; Sar = CNCC(=O)O
Legend:
[1] = molecular target: Human EphA2 (Ecto) (Human) (UniProt P29317); assay: FP competition, tracer Compound 18
Sequence of Human EphA2 (Ecto) (Human) (P29317 24-537): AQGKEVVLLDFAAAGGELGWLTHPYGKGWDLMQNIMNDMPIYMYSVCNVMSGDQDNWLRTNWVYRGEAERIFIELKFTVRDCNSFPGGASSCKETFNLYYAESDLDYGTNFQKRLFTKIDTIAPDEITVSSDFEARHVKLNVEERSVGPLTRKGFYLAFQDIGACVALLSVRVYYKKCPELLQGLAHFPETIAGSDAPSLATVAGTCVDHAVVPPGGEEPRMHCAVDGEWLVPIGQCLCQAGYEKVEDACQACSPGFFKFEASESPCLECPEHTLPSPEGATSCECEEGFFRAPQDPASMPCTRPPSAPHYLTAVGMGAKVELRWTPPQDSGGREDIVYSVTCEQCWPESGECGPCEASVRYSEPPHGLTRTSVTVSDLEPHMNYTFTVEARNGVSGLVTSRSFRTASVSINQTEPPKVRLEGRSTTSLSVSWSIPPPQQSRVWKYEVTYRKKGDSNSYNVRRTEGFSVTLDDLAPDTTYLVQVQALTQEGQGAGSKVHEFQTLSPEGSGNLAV

[2] = molecular target: T1, Human EphA2 (Ecto) (Human, UniProt P29317 24-537); assay: FP competition, tracer Compound 66
T1 construct: extracellular domain
T1 sequence (P29317 24-537): as above

Ki [1]	Ki [2]	Binder
2.83 nM		[βAla][Sar][Sar][Sar][Sar][Sar][Sar][Sar][Sar][Sar][Sar]H[dD]VPC[Aib][1Nal]GP[hArg][1Nal]CP[Tle]NR[Aib]GC (linker 16-23-30 via TBMB) [Bicycle Compound 243]
1.93 nM		Ac-[Sar][Sar]A[dH]DVPCP[1Nal]G[Aib]F[1Nal]CP[Tle]N[hArg]PGC (linker 8-15-22 via TBMB) [Bicycle Compound 231]
0.46 nM		[βAla][Sar][Sar][Sar][Sar][Sar][Sar][Sar][Sar][Sar][Sar]H[dD][Gly(cPent)]PCP[1Nal]G[Aib]F[1Nal]CP[Tle]NR[Aib]GC (linker 16-23-30 via TBMB) [Bicycle Compound 278]
2.83 nM		[βAla][Sar][Sar][Sar][Sar][Sar][Sar][Sar][Sar][Sar][Sar]H[dD]VPC[Aib][1Nal]G[Aib]F[1Nal]CP[Tle]N[hArg][Aib][dD]C (linker 16-23-30 via TBMB) [Bicycle Compound 238]
1.19 nM		Ac-[Sar][Sar]A[dD]VTCP[1Nal]G[Aib]F[1Nal]CP[Tle]N[hArg]P[dD]C (linker 7-14-21 via TBMB) [Bicycle Compound 184]
15.9 nM		[βAla][Sar][Sar][Sar][Sar][Sar][Sar][Sar][Sar][Sar][Sar]H[dD][Gly(cPent)]PC[Aib]WG[Aib]FWCP[Tle]NR[Aib][dD]C (linker 16-23-30 via TBMB) [Bicycle Compound 275]
31.4 nM		[βAla][Sar][Sar][Sar][Sar][Sar][Sar][Sar][Sar][Sar][Sar]H[dD]VPC[Aib]WGP[hArg]WCP[Tle]N[hArg]P[dD]C (linker 16-23-30 via TBMB) [Bicycle Compound 246]
3.94 nM		[βAla][Sar][Sar][Sar][Sar][Sar][Sar][Sar][Sar][Sar][Sar]H[dD]VPC[Aib][1Nal]G[Aib]F[1Nal]CP[Tle]NRPGC (linker 16-23-30 via TBMB) [Bicycle Compound 234]
1.55 nM		[βAla][Sar][Sar][Sar][Sar][Sar][Sar][Sar][Sar][Sar][Sar]H[dD]VPCP[1Nal]G[Aib]FWCP[Tle]N[hArg]P[dD]C (linker 16-23-30 via TBMB) [Bicycle Compound 265]
28.4 nM		[βAla][Sar][Sar][Sar][Sar][Sar][Sar][Sar][Sar][Sar][Sar]H[dD]VPC[dA][1Nal]G[Aib]F[1Nal]CP[Tle]N[hArg]P[dD]C (linker 16-23-30 via TBMB) [Bicycle Compound 248]
	954 nM	[Sar][Sar]ACPWGPFWCPANRPGC (linker 4-11-18 via TBMB) [Bicycle Compound 292]
	1000 nM	[Sar][Sar]ACPW[dA]PFWCPVNRPGC (linker 4-11-18 via TBMB) [Bicycle Compound 296]
2.58 nM		[βAla][Sar][Sar][Sar][Sar][Sar][Sar][Sar][Sar][Sar][Sar]H[dD]VPC[Aib][1Nal]G[Aib]F[1Nal]CP[Tle]N[hArg]PGC (linker 16-23-30 via TBMB) [Bicycle Compound 235]
	1500 nM	[Sar][Sar]ACPWG[dA]FWCPVNRPGC (linker 4-11-18 via TBMB) [Bicycle Compound 297]
1.07 nM		[βAla][Sar][Sar][Sar][Sar][Sar][Sar][Sar][Sar][Sar][Sar]H[dD]VPCP[1Nal]G[Aib]F[1Nal]CP[Tle]N[hArg]PGC (linker 16-23-30 via TBMB) [Bicycle Compound 257]
0.59 nM		[βAla][Sar][Sar][Sar][Sar][Sar][Sar][Sar][Sar][Sar][Sar]H[dD][Gly(cPent)]TCP[1Nal]G[Aib]F[1Nal]CP[Tle]NR[Aib]GC (linker 16-23-30 via TBMB) [Bicycle Compound 279]
4.91 nM		[βAla][Sar][Sar][Sar][Sar][Sar][Sar][Sar][Sar][Sar][Sar]H[dD]VPC[Aib][1Nal]G[Aib]F[1Nal]CP[Tle]NR[Aib]GC (linker 16-23-30 via TBMB) [Bicycle Compound 239]
1.21 nM		Ac-[Sar][Sar]H[dD]VTCP[1Nal]G[Aib]F[1Nal]CP[Tle]NR[Aib]GC (linker 7-14-21 via TBMB) [Bicycle Compound 285]
	886 nM	[Sar][Sar]ACAWGPFWCPVNRPGC (linker 4-11-18 via TBMB) [Bicycle Compound 286]

Ki [1]	Ki [2]	Binder
7.77 nM		[βAla][Sar][Sar][Sar][Sar][Sar][Sar][Sar][Sar][Sar][Sar]H[dD]VPC[Aib][1Nal]G[Aib]FWCP[Tle]N[hArg]P[dD]C (linker 16-23-30 via TBMB) [Bicycle Compound 242]
1.93 nM		[βAla][Sar][Sar][Sar][Sar][Sar][Sar][Sar][Sar][Sar][Sar]H[dD]VPCP[1Nal]G[Aib][hArg][1Nal]CP[Tle]N[hArg]P[dD]C (linker 16-23-30 via TBMB) [Bicycle Compound 251]
29.7 nM		[βAla][Sar][Sar][Sar][Sar][Sar][Sar][Sar][Sar][Sar][Sar]H[dD]VPC[Aib]WGP[hArg]WCP[Tle]N[hArg]P[dD]C (linker 16-23-30 via TBMB) [Bicycle Compound 247]
1.38 nM		[βAla][Sar][Sar][Sar][Sar][Sar][Sar][Sar][Sar][Sar][Sar]H[dD]VPCP[1Nal]G[Aib][hArg][1Nal]CP[Tle]NR[Aib]GC (linker 16-23-30 via TBMB) [Bicycle Compound 249]
1.16 nM		Ac-[Sar][Sar]A[dD]VTCP[1Nal]G[Aib]F[1Nal]CP[Tle]N[hArg]PGC (linker 7-14-21 via TBMB) [Bicycle Compound 182]
0.85 nM		Ac-[Sar][Sar]H[dD]VPCP[1Nal]G[Aib]F[1Nal]CP[Tle]N[hArg]PGC (linker 7-14-21 via TBMB) [Bicycle Compound 253]
0.37 nM		[βAla][Sar][Sar][Sar][Sar][Sar][Sar][Sar][Sar][Sar][Sar]H[dD]VPCP[1Nal]G[Aib]F[1Nal]CP[Tle]NRPGC (linker 16-23-30 via TBMB) [Bicycle Compound 252]
0.9 nM		Ac-[Sar][Sar]A[dH]DVPCP[1Nal]G[Aib]F[1Nal]CP[Tle]NR[Aib]GC (linker 8-15-22 via TBMB) [Bicycle Compound 232]
3.66 nM		[βAla][Sar][Sar][Sar][Sar][Sar][Sar][Sar][Sar][Sar][Sar]H[dD]VPCPWG[Aib]FWCP[Tle]N[hArg]P[dD]C (linker 16-23-30 via TBMB) [Bicycle Compound 271]
1.48 nM		[βAla][Sar][Sar][Sar][Sar][Sar][Sar][Sar][Sar][Sar][Sar]H[dD]VPCP[1Nal]G[Aib][hArg][1Nal]CP[Tle]NR[Aib][dD]C (linker 16-23-30 via TBMB) [Bicycle Compound 250]
1.11 nM		[βAla][Sar][Sar][Sar][Sar][Sar][Sar][Sar][Sar][Sar][Sar]H[dD]VPCPWG[Aib]F[1Nal]CP[Tle]N[hArg]P[dD]C (linker 16-23-30 via TBMB) [Bicycle Compound 269]
2.8 nM		[βAla][Sar][Sar][Sar][Sar][Sar][Sar][Sar][Sar][Sar][Sar]H[dD]VPC[Aib][1Nal]GP[hArg][1Nal]CP[Tle]N[hArg]P[dD]C (linker 16-23-30 via TBMB) [Bicycle Compound 244]
0.91 nM		[βAla][Sar][Sar][Sar][Sar][Sar][Sar][Sar][Sar][Sar][Sar]H[dD]VPCP[1Nal]G[Aib]F[1Nal]CP[Tle]N[hArg][Aib][dD]C (linker 16-23-30 via TBMB) [Bicycle Compound 259]
0.64 nM		[βAla][Sar][Sar][Sar][Sar][Sar][Sar][Sar][Sar][Sar][Sar]H[dD][Gly(cPent)]TCP[1Nal]G[Aib]F[1Nal]CP[Tle]N[hArg]P[dD]C (linker 16-23-30 via TBMB) [Bicycle Compound 280]
1.02 nM		Ac-[Sar][Sar]A[dD]VTCP[1Nal]G[Aib]F[1Nal]CP[Tle]NR[Aib]GC (linker 7-14-21 via TBMB) [Bicycle Compound 183]
	265 nM	[Sar][Sar]ACPWGPFWCPVARPGC (linker 4-11-18 via TBMB) [Bicycle Compound 101]
3.99 nM		[βAla][Sar][Sar][Sar][Sar][Sar][Sar][Sar][Sar][Sar][Sar]H[dD]VPCPWGP[hArg]WCP[Tle]N[hArg]P[dD]C (linker 16-23-30 via TBMB) [Bicycle Compound 272]
	711 nM	[Sar][Sar]ACPWGPFWCPVNAPGC (linker 4-11-18 via TBMB) [Bicycle Compound 293]

Reference: patent US11814447B2, “Peptide ligands for binding to EphA2” (BICYCLERD LIMITED, priority 2018, dated 2023)
